Data taken from patent US20080207488A1, “Method for Detecting Peptides Comprising a Cross-B Structure” (priority 2005, published 2008).

Columns and labels:
[1] = Stability testing of biopharmaceuticals under denaturing conditions (ThT fluorescence, tPA activation); type: physicochemical; conditions: ThT at 25 μg/mL, tPA activation at 100 μg/mL
Experimental: To mimic accelerated stability testing several therapeutics were exposed to denaturing conditions and assayed for amyloid-like properties before and after treatment by tPA activation assay at 100 μg/mL protein and ThT fluorescence enhancement assay at 25 μg/mL protein. For this purpose, 5 mg/mL Glucagon (Glucagen; Novo Nordisk Farma B.V., Alphen aan de Rijn, The Netherlands) was incubated at 37° C. in 0.01 M HCl for 48 hours. One mg/mL Etanercept (Enbrel; Wyeth Pharmaceuticals B.V., Hoofddorp, The Netherlands) in 67 mM sodium phosphate buffer, 100 mM NaCl pH 7.0 was gradually heated from 30° C. to 85° C. over a period of 12 minutes and afterwards cooled to 4° C. for 5 minutes, this treatment was repeated 4 times. Abciximab (Reopro; Centocor B.V., Leiden, The Netherlands) and Infliximab (Remicade; Schering-Plough B.V., Utrecht, The Netherlands) were incubated at 65° C. for 16 and 72 hours, respectively.

tPA [2] = target: T1, tPA (Homo sapiens, UniProt P00750); assay: tPA/plasminogen activation assay (400 pM tPA); type: biochemical; conditions: % of standardized positive control (denatured γ-globulins 100 μg/ml); 1:10 diluted samples
T1 construct: purchased Boehringer-Ingelheim (Actilyse, Alteplase)
Experimental: β2-GPI was reduced and alkylated as follows. Six hundred forty μl of β2-GPI stock was mixed with 640 μl of 8 M Urea (cooled solution) in 0.1 M Tris pH=8.2. The solution was degassed with N2 gas for approximately 6 minutes. From a 1 M DTT stock 12.8 μl was added to the solution, mixed and incubated for 3 hours at room temperature. A 1 M Iodoacetamide (Sigma; 1-6125) was prepared, of which 25.6 μl was added to the β2-GPI reaction mixture. The solution was subsequently dialysed against PBS. […] Signals obtained with alkyl-62gpi are compared with those obtained with native β2gpi starting material.
Exiqon Peptide Immobilizer plates were blocked for 1 hour with PBS, 1% Tween20 and rinsed twice with distilled water. The conversion of the chromogenic substrate S-2251 (Chromogenix, Italy) by plasmin was kinetically measured at 37° C. on a Spectramax340 microplate reader at a wavelength of 405 nm. […] Denatured γ-globulins (100 μg/ml) with amyloid-like structure was used as reference and positive control. Lyophilized γ-globulins (Sigma, MO, USA) were dissolved in a 1(:)1 volume ratio of 1,1,1,3,3,3-hexafluoro-2-propanol and trifluoro-acetic acid and subsequently dried under air. Dried γ-globulins was dissolved in H2O to a final concentration of 1 mg/ml and kept at room temperature for at least three days and subsequently stored at −20° C.
(§1) Protein therapeutics were obtained from the local hospital pharmacy and analyzed within the expiry limits as stated by the manufacturers.

[3] = Thioflavin T fluorescence; type: physicochemical; conditions: for Fluorescence (a.u. +/− SD) ThT: marketed biopharmaceutical within expiry limits, five μL tested
Experimental: Fluorescence of ThT-protein/peptide adducts was measured as follows. […] Fluorescence was measured at 485 nm upon excitation at 435 nm. Background signals from buffer, buffer with ThT and protein/peptide solution without ThT were subtracted from corresponding measurements with protein solution incubated with ThT. […] Fluorescence was measured in triplicate on a Hitachi F-4500 fluorescence spectrophotometer (Ltd., Tokyo, Japan).
(§2) Formulated protein therapeutics were obtained from the local hospital pharmacy and were used as supplied by the manufacturers. […] Lyophilized therapeutics were dissolved according to the manufacturers recommendations. […] Other protein therapeutics were only kept at 4° C., and assayed for the presence of cross-β structure conformation at shown time points. Enhancement in fluorescence of ThT and Congo red was measured with all formulated protein therapeutics. For this purpose, proteins were diluted to the indicated concentrations. […] Zinc-insulin was diluted tenfold in the activation assay, GH was diluted to a final concentration of 500 μg ml^−1. Activation of factor XII and prekallikrein by the therapeutics was tested in the chromogenic factor XII assay (see above). […] After coating, plates were blocked with Blocking Reagent (Roche Diagnostics, Almere, The Netherlands).
To prepare structurally altered ovalbumin (OVA) with amyloid cross-β structure conformation, purified OVA (Sigma, A-7641, lot 071k7094) was heated to 85° C. One mg ml^−1 OVA in 67 mM NaPi buffer pH 7.0, 100 mM NaCl, was heated for two cycles in PCR cups in a PTC-200 thermal cycler (MJ Research, Inc., Waltham, Mass., USA). In each cycle, OVA was heated from 30 to 85° C. at a rate of 5° C./min. Native OVA (nOVA) and heat-denatured OVA (dOVA) were tested in the ThT fluorescence assay and in the Plg-activation assay. In the fluorescence assay and in the Plg-activation assay, 25 and 100 μg ml^−1 nOVA and dOVA were tested, respectively. TEM images of nOVA and dOVA were taken to check for the presence of large aggregates. […] MSA (#126674, Calbiochem) was dissolved in 8 M urea, 100 mM Tris-HCl pH 8.2, at 10 mg ml^−1 final concentration. Dithiothreitol (DTT) was added to a final concentration of 10 mM. Air was replaced by N2 and the solution was incubated for 2 h at room temperature. Then, the solution was transferred to ice and iodoacetamide was added from a 1 M stock to a final concentration of 20 mM. […] Alkyl-MSA was dialyzed against H2O before use. […] In the ThT-fluorescence assay 25 μg ml^−1 nMSA and alkyl-MSA were tested, and in the Plg-activation assay 100 μg ml^−1 was tested. The presence of aggregates or fibrils was analyzed using TEM. […]
as §1

tPA [4] = target: T1, tPA; assay: Plasminogen-activation assay (tPA-mediated Plg to Pls, S-2251); type: biochemical; conditions: for tPA activating potential of native and denatured glucagon and Etanercept: FIG. 6E, G
Experimental: (§3) Plasmin (Pls) activity was assayed as described^7. Peptides and proteins that were tested for their stimulatory ability were regularly used at 100 μg ml^−1. […] Chromogenic substrate S-2251 (Chromogenix, Instrumentation Laboratory SpA, Milano, Italy) was used to measure Pls activity. Conversion of zymogen factor XII (#233490, Calbiochem, EMD Biosciences, Inc., San Diego, Calif.) to proteolytically active factor XII (factor XIIa) was assayed by measurement of the conversion of chromogenic substrate Chromozym-PK (Roche Diagnostics, Almere, The Netherlands) by kallikrein. Chromozym-PK was used at a concentration of 0.3 mM. Factor XII, human plasma prekallikrein (#529583, Calbiochem) and human plasma cofactor high-molecular weight kininogen (#422686, Calbiochem) were used at concentrations of 1 μg ml^−1. […] Assays were performed using microtiter plates (Costar, Cambridge, Mass., USA). Peptides and proteins were tested for their ability to activate factor XII. 150 μg ml^−1 kaolin, an established activator of factor XII was used as positive control and solvent (H2O) as negative control. The conversion of Chromozym-PK was recorded kinetically at 37° C. for at least 60 minutes. Assays were done in duplicate. […] Alternatively, chromogenic substrate S-2222 (Chromogenix) was used to follow the activity of factor XII itself. With S-2222, activation of factor XII in plasma was measured, using 60% v/v plasma, diluted with substrate and H2O with or without potential cofactor. Furthermore, auto-activation of factor XII was measured by incubating 53 μg ml^−1 purified factor XII in 50 mM Tris-HCl buffer pH 7.5 with 1 mM EDTA and 0.001% v/v Triton-X100, with S-2222 and H2O with or without potential cofactor.
as §2
Purification of β2-glycoprotein I (β2GPI) was performed according to established methods^11,12. Recombinant human β2GPI was made using insect cells and purified as described^11. Plasma derived β2GPI as used in a factor XII ELISA, the chromogenic Plg-activation assay and in the anti-phospholipid syndrome antibody ELISA (see below), was purified from fresh human plasma as described^12.
To prepare structurally altered ovalbumin (OVA) with amyloid cross-β structure conformation, purified OVA (Sigma, A-7641, lot 071k7094) was heated to 85° C. One mg ml^−1 OVA in 67 mM NaPi buffer pH 7.0, 100 mM NaCl, was heated for two cycles in PCR cups in a PTC-200 thermal cycler (MJ Research, Inc., Waltham, Mass., USA). In each cycle, OVA was heated from 30 to 85° C. at a rate of 5° C./min. Native OVA (nOVA) and heat-denatured OVA (dOVA) were tested in the ThT fluorescence assay and in the Plg-activation assay. In the fluorescence assay and in the Plg-activation assay, 25 and 100 μg ml^−1 nOVA and dOVA were tested, respectively. TEM images of nOVA and dOVA were taken to check for the presence of large aggregates. […] MSA (#126674, Calbiochem) was dissolved in 8 M urea, 100 mM Tris-HCl pH 8.2, at 10 mg ml^−1 final concentration.

Congo red fluorescence = type: physicochemical; conditions: for Fluorescence (a.u. +/− SD) CR: marketed biopharmaceutical within expiry limits, five μL tested; for enhancement of Congo red fluorescence: therapeutics stored at 4° C.
Experimental: Background signals from buffer, buffer with Congo red and protein/peptide solution without Congo red were subtracted from corresponding measurements with protein solution incubated with Congo red. Fluorescence was measured in triplicate on a Hitachi F-4500 fluorescence spectrophotometer (Ltd., Tokyo, Japan).
as §2, §1

tPA [5] = target: T1, tPA; assay: tPA ELISA with coated protein therapeutics; type: binding; conditions: 5 μg ml^−1 coated, stored at 4° C.
Experimental: as §2

factor XII = target: T2, factor XII (Homo sapiens, UniProt P00748); assay: Chromogenic factor XII/prekallikrein activation assay (Chromozym-PK); type: biochemical
T2 construct: purchased Calbiochem, EMD Biosciences #233490
T2 sequence (P00748 20-615): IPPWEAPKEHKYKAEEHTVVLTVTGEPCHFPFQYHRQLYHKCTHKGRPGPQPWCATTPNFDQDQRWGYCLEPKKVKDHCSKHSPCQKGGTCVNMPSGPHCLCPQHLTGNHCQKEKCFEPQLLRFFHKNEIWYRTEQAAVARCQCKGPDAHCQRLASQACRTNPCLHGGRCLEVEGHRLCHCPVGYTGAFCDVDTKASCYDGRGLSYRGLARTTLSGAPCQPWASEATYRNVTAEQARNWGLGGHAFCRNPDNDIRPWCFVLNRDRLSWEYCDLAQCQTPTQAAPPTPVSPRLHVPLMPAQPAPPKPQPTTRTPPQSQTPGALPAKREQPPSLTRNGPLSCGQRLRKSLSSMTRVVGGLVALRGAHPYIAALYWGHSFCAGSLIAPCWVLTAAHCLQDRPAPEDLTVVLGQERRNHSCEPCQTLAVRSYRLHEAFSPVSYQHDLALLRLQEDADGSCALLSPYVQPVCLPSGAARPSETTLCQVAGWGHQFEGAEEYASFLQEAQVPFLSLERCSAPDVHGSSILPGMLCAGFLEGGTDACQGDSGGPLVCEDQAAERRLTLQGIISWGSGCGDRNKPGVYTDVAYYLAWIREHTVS
Experimental: as §3, §2

tPA [6] = target: T1, tPA; assay: tPA binding assay with immobilized biopharmaceuticals in an ELISA; conditions: therapeutic coated 1:10; one-site binding fit
Experimental: Nunc Immobilizer plates (Nalge Nunc, #436013, Rochester, N.Y., USA) were coated with 50 μL containing 5 μg/mL of sample protein (unless indicated otherwise) in 100 mM NaHCO3, pH 9.6, 0.05% m/v NaN3 for 1 hour at room temperature. Plates were washed twice with Tris buffered saline pH 7.2 containing 0.1% Tween20 (TBST) and blocked with PBS containing 1% Tween20 for 1 hour at room temperature. […] Plates were washed five times with TBST and incubated with peroxidase labeled anti-mouse immunoglobulins (RAMPO; DAKOCytomation, Glostrup, Denmark) diluted 1:3000 in PBST for 30 minutes at room temperature. Plates were washed five times with PBS 0.1% Tween20, and stained with 100 μL/well of tetramethyl-benzidine (TMB) substrate (Biosource Europe, Nivelles, Belgium). The reaction was terminated with 50 μL/well of 2 M H2SO4 and substrate conversion was read at 450 nm on a Spectramax340 microplate reader. Curves were fitted with a one-site binding model (GraphPad Prism version 4.02 for Windows, Graphpad Software, CA, USA) from which Kd and Bmax were determined.
as §1

T1 sequence (P00750 36-562): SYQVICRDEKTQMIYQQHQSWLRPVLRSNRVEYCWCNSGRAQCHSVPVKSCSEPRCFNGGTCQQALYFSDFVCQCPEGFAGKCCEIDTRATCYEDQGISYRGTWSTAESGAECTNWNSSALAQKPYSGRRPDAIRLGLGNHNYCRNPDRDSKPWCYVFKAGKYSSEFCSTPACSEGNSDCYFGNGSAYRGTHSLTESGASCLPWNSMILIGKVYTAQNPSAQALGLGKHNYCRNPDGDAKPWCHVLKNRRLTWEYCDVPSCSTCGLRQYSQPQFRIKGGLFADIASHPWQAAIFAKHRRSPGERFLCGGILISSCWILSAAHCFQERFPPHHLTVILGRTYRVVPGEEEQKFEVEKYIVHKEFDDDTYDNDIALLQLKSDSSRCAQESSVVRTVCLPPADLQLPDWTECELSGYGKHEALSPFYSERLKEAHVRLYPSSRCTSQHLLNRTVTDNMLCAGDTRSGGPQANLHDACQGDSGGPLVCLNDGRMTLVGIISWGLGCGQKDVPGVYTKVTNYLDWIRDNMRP

Row | Substance | amyloid-like properties after exposure to harsh denaturing conditions (low pH, heat) [1] | tPA activation Max. Activation (%) (tPA [2]) | ThT fluorescence enhancement of native and denatured proteins ([3]; 25 μg ml^−1) | Fluorescence (a.u. +/− SD) ThT [3] | tPA activating potential of native and denatured glucagon and Etanercept (tPA [4]) | Fluorescence (a.u. +/− SD) CR (Congo red fluorescence) | binding of tPA to immobilized therapeutic (tPA [5]) | factor XII activation by gelatin (factor XII; kept at 37° C.) | factor XII/prekallikrein activation by protein therapeutics (factor XII; stored at 4° C.) | Congo red fluorescence of gelatin (Congo red fluorescence; stored at 4° C. and 37° C.) | enhancement of Congo red fluorescence (Congo red fluorescence) | tPA Binding Bmax (OD450 nm) (tPA [6]) | enhancement of ThT fluorescence ([3]; therapeutics stored at 4° C.) | tPA activation by protein therapeutics (tPA [4]; stored at 4° C., GH 500 μg ml^−1, zinc-insulin diluted tenfold)
1 | Etanercept | amyloid-like properties are adopted | 0% | gave some ThT fluorescence enhancement | 23 +/− 3 a.u. | induces some tPA activation |  |  |  |  |  |  |  |  | 
2 | Infliximab: human-murine chimeric monoclonal antibody (Remicade-infliximab) | amyloid-like properties are adopted | 0% |  | 19 +/− 1 a.u. |  | 67 +/− 2 a.u. |  |  |  |  |  |  |  | 
3 | gelatin |  |  |  |  |  |  | binding of tPA was established | activated factor XII | not | enhanced Congo red fluorescence in a storage temperature dependent manner | enhanced the fluorescence of Congo red |  |  | 
4 | Somatropin: human growth hormone (GH) (Genotropin, Pharmacia) |  |  |  | 1317 +/− 10 a.u. |  | 429 +/− 2 a.u. | binding of tPA was established |  |  |  | to some extent | 0.9369 OD450 nm | enhance fluorescence of ThT | induced tPA activation
5 | Glucagon: human glucagon (Glucagen, Novo Nordisk) | amyloid-like properties are adopted | 11.25% |  | 48 +/− 1 a.u. | has some tPA activating potential |  |  |  |  |  |  |  |  | 
